# Assay results taken from the supplement of paper PMC10567573.
# B1: FCHO1 (parent)
# chain: DKLALCHLELTRKLQDLIKDVLRY
# Variants of: B1
# Test: protein stability index of a GFP-peptide fusion (GPS, HEK-293T) (PSI 1-6); higher = more stable
# Conditions: c terminus: a fixed tail appended
# 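Note: lentivirally expressed fusions sorted by FACS into six bins by GFP to DsRed ratio, PSI derived from sequencing read proportions per bin multiplied by bin number.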
row,Variant,protein stability index
1,DELALCHLELTRKLQDLIKDVLRY [K2E],2.28
2,DALALCHLELTRKLQDLIKDVLRY [K2A],1.43
3,DMLALCHLELTRKLQDLIKDVLRY [K2M],3.83
4,DLLALCHLELTRKLQDLIKDVLRY [K2L],2.64
5,DDLALCHLELTRKLQDLIKDVLRY [K2D],3.04
6,DKLALCHLYLTRKLQDLIKDVLRY [E9Y],3.21
7,DKLALCHLPLTRKLQDLIKDVLRY [E9P],3.31
8,DKLALCHLQLTRKLQDLIKDVLRY [E9Q],3.2
9,DKLALCHLFLTRKLQDLIKDVLRY [E9F],2.62
10,DKLALCHLLLTRKLQDLIKDVLRY [E9L],2.72
11,DKLALCHLWLTRKLQDLIKDVLRY [E9W],2.73
12,DKLALCHLNLTRKLQDLIKDVLRY [E9N],5.51
13,DKLALCHLGLTRKLQDLIKDVLRY [E9G],2.87
14,DKLALCHLHLTRKLQDLIKDVLRY [E9H],2.19
15,DKLALCHLALTRKLQDLIKDVLRY [E9A],2.63
16,DKLALCHLVLTRKLQDLIKDVLRY [E9V],4.2
17,DKLALCHLSLTRKLQDLIKDVLRY [E9S],1.77
18,DKLALCHLILTRKLQDLIKDVLRY [E9I],2.67
19,DKLALCHLKLTRKLQDLIKDVLRY [E9K],3.04
20,DKVALCHLELTRKLQDLIKDVLRY [L3V],3.04
21,DKCALCHLELTRKLQDLIKDVLRY [L3C],2.51
22,DKTALCHLELTRKLQDLIKDVLRY [L3T],1.81
23,DKKALCHLELTRKLQDLIKDVLRY [L3K],2.23
24,DKFALCHLELTRKLQDLIKDVLRY [L3F],2.93

row,Variant,protein stability index
1,DKEALCHLELTRKLQDLIKDVLRY [L3E],2.3
2,DKSALCHLELTRKLQDLIKDVLRY [L3S],1.79
3,DKNALCHLELTRKLQDLIKDVLRY [L3N],2.25
4,DKAALCHLELTRKLQDLIKDVLRY [L3A],1.44
5,DKDALCHLELTRKLQDLIKDVLRY [L3D],2.09
6,DKHALCHLELTRKLQDLIKDVLRY [L3H],2.12
7,DKLALCHIELTRKLQDLIKDVLRY [L8I],1.79
8,DKLALCHNELTRKLQDLIKDVLRY [L8N],2.36
9,DKLALCHHELTRKLQDLIKDVLRY [L8H],3.96
10,DKLALCHKELTRKLQDLIKDVLRY [L8K],2.72
11,DKLALCHGELTRKLQDLIKDVLRY [L8G],2.92
12,DKLALCHFELTRKLQDLIKDVLRY [L8F],2.65
13,DKLALCHDELTRKLQDLIKDVLRY [L8D],2.63
14,DKLALCHWELTRKLQDLIKDVLRY [L8W],2
15,DKLALCHLELDRKLQDLIKDVLRY [T11D],3.07
16,DKLALCHLELFRKLQDLIKDVLRY [T11F],3.07
17,DKLALCHLELNRKLQDLIKDVLRY [T11N],1.26
18,DKLALCHLELPRKLQDLIKDVLRY [T11P],1.51
19,DKLALCHLELYRKLQDLIKDVLRY [T11Y],2.57
20,DKLALCHLELQRKLQDLIKDVLRY [T11Q],2.8
21,DKLALCHLELMRKLQDLIKDVLRY [T11M],2.82
22,DKLALCHLELERKLQDLIKDVLRY [T11E],1.27
23,DKLALCHLELCRKLQDLIKDVLRY [T11C],3.34
24,DKLALCHLELSRKLQDLIKDVLRY [T11S],2.25

row,Variant,protein stability index
1,DKLALCHLELIRKLQDLIKDVLRY [T11I],1.69
2,DKLALCHLELTPKLQDLIKDVLRY [R12P],1.53
3,DKLALCHLELTYKLQDLIKDVLRY [R12Y],2.6
4,DKLALCHLELTDKLQDLIKDVLRY [R12D],2.92
5,DKLALCHLELTSKLQDLIKDVLRY [R12S],2.56
6,DKLALCHLELTQKLQDLIKDVLRY [R12Q],2.9
7,DKLALCHLELTNKLQDLIKDVLRY [R12N],2.54
8,DKLALCHLELTGKLQDLIKDVLRY [R12G],2.7
9,DKLALCHLELTWKLQDLIKDVLRY [R12W],2.44
10,DKLALCHLELTHKLQDLIKDVLRY [R12H],2.98
11,DKLALCHLELTCKLQDLIKDVLRY [R12C],2.23
12,DKLALCHLELTEKLQDLIKDVLRY [R12E],1.54
13,DKLALCHLELTAKLQDLIKDVLRY [R12A],1.42
14,DKLALCHLELTTKLQDLIKDVLRY [R12T],1.94
15,DKLALCHLELTMKLQDLIKDVLRY [R12M],1.99
16,DKLALCHLELTVKLQDLIKDVLRY [R12V],1.83
17,DKLALCHLELTIKLQDLIKDVLRY [R12I],2.33
18,DKLPLCHLELTRKLQDLIKDVLRY [A4P],2.33
19,DKLSLCHLELTRKLQDLIKDVLRY [A4S],1.81
20,DKLGLCHLELTRKLQDLIKDVLRY [A4G],1.6
21,DKLWLCHLELTRKLQDLIKDVLRY [A4W],3.22
22,DKLFLCHLELTRKLQDLIKDVLRY [A4F],2.01
23,DKLLLCHLELTRKLQDLIKDVLRY [A4L],1.98
24,DKLCLCHLELTRKLQDLIKDVLRY [A4C],2.52

row,Variant,protein stability index
1,DKLQLCHLELTRKLQDLIKDVLRY [A4Q],3.43
2,DKLILCHLELTRKLQDLIKDVLRY [A4I],3.21
3,DKLALCHLELTRKLVDLIKDVLRY [Q15V],1.95
4,DKLALCHLELTRKLWDLIKDVLRY [Q15W],2.34
5,DKLALCHLELTRKLCDLIKDVLRY [Q15C],2.26
6,DKLALCHLELTRKLIDLIKDVLRY [Q15I],3.87
7,DKLALCHLELTRKLRDLIKDVLRY [Q15R],2.88
8,DKLALCHLELTRKLLDLIKDVLRY [Q15L],3.4
9,DKLALCHLELTRKLADLIKDVLRY [Q15A],2.11
10,DKLALCHLELTRKLDDLIKDVLRY [Q15D],2.48
11,DKLALCHLELTRKLSDLIKDVLRY [Q15S],4.09
12,DKLALCHLELTRKLPDLIKDVLRY [Q15P],1.36
13,DKLALCHLELTRKLNDLIKDVLRY [Q15N],2.84
14,DKLALCHLELTRKLTDLIKDVLRY [Q15T],2.05
15,DKLASCHLELTRKLQDLIKDVLRY [L5S],3.18
16,DKLAHCHLELTRKLQDLIKDVLRY [L5H],2.98
17,DKLAICHLELTRKLQDLIKDVLRY [L5I],1.94
18,DKLAPCHLELTRKLQDLIKDVLRY [L5P],1.82
19,DKLAYCHLELTRKLQDLIKDVLRY [L5Y],2.01
20,DKLAWCHLELTRKLQDLIKDVLRY [L5W],4.03
21,DKLATCHLELTRKLQDLIKDVLRY [L5T],1.72
22,DKLAECHLELTRKLQDLIKDVLRY [L5E],1.62
